Here are results for 125 sequences from the supplement of paper PMC9112550, “Optimization of the antimicrobial peptide Bac7 by deep mutational scanning” (BMC Biology, 2022).

The data set deals with Escherichia coli TOP10. In words: shrunken log2 fold change of peptide-encoding DNA abundance (4.5 h post-induction vs induction); higher = less antimicrobial activity (less host growth inhibition). The following applies: time post-induction: 4.5 h; library: site-saturation at positions 5, 18, 19, 20.
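Also: peptides expressed intracellularly from a pBAD plasmid library in pooled LB shake-flask culture, induced with 0.3% L-arabinose, DNA abundance read by NGS, three biological replicates, DESeq2 with apeglm shrinkage.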

As to RRIRNRPPRLPRPRPRPSYQPRP, the “shrunken log2 fold change” value is -0.75.
With RRIRRRPPRLPRPRPRPHVLPRP, the “shrunken log2 fold change” value came out at 0.0842.
On to RRIRMRPPRLPRPRPRPWFPPRP, for which the “shrunken log2 fold change” value is -0.0494.
Regarding RRIRYRPPRLPRPRPRPAKWPRP, the “shrunken log2 fold change” value turned out to be 0.0339.
With RRIRFRPPRLPRPRPRPEIVPRP, the “shrunken log2 fold change” value was -0.0888.
With RRIRYRPPRLPRPRPRPFTRPRP, the “shrunken log2 fold change” value was -0.0174.
For RRIRGRPPRLPRPRPRPTPFPRP the value was 0.629; for RRIRFRPPRLPRPRPRPIEHPRP, -0.215.
As for RRIRPRPPRLPRPRPRPFTFPRP, the “shrunken log2 fold change” value was -0.189.
As for RRIRLRPPRLPRPRPRPYYAPRP, the “shrunken log2 fold change” value is -0.484.
Then RRIRWRPPRLPRPRPRPDATPRP, with 2.57; and RRIRRRPPRLPRPRPRPIVMPRP, with -0.0167.
On to RRIRDRPPRLPRPRPRPGMQPRP, for which the “shrunken log2 fold change” value is 0.165.
Take RRIRWRPPRLPRPRPRPTLWPRP: the “shrunken log2 fold change” value was 0.611.
Then RRIRTRPPRLPRPRPRPFRRPRP, with -0.0209.
In the case of RRIRRRPPRLPRPRPRPPIGPRP, the “shrunken log2 fold change” value was -0.149.
With RRIRWRPPRLPRPRPRPIYIPRP, the “shrunken log2 fold change” value is -0.889.
For RRIRRRPPRLPRPRPRPTPGPRP the value was 1.11.
With RRIRARPPRLPRPRPRPHPSPRP, the “shrunken log2 fold change” value stood at 0.327.
Turning to RRIRARPPRLPRPRPRPQQKPRP, the “shrunken log2 fold change” value came out at 0.153.
Regarding RRIRERPPRLPRPRPRPHGRPRP, the “shrunken log2 fold change” value is 0.0279.
On to RRIRLRPPRLPRPRPRPYNNPRP, for which the “shrunken log2 fold change” value was -1.03.
For RRIRNRPPRLPRPRPRPAGWPRP the value was 0.558.
On to RRIRARPPRLPRPRPRPPHYPRP, for which the “shrunken log2 fold change” value is 0.857.
For RRIRYRPPRLPRPRPRPNDGPRP, the “shrunken log2 fold change” value was -0.0117.
Then RRIRIRPPRLPRPRPRPMSMPRP, with -0.281; and RRIRVRPPRLPRPRPRPYRFPRP, with -0.0944; and RRIRVRPPRLPRPRPRPPQMPRP, with 0.236.
Consider RRIRRRPPRLPRPRPRPLLLPRP, for which the “shrunken log2 fold change” value is 0.0522.
As for RRIRPRPPRLPRPRPRPQGPPRP, the “shrunken log2 fold change” value turned out to be 0.0552.
Consider RRIRCRPPRLPRPRPRPWVMPRP, for which the “shrunken log2 fold change” value was -0.221.
As for RRIRYRPPRLPRPRPRPSGLPRP, the “shrunken log2 fold change” value is -0.078.
For the sequence RRIRVRPPRLPRPRPRPGEWPRP, the “shrunken log2 fold change” value is -0.00804.
On to RRIRNRPPRLPRPRPRPFWTPRP, for which the “shrunken log2 fold change” value was -0.132.
On to RRIRSRPPRLPRPRPRPPMAPRP, for which the “shrunken log2 fold change” value is 0.169.
For the sequence RRIRQRPPRLPRPRPRPPISPRP, the “shrunken log2 fold change” value was -0.187.
In the case of RRIRPRPPRLPRPRPRPKSDPRP, the “shrunken log2 fold change” value came to 0.0265.
As to RRIRPRPPRLPRPRPRPSYGPRP, the “shrunken log2 fold change” value was -0.2.
Turning to RRIRMRPPRLPRPRPRPYTLPRP, the “shrunken log2 fold change” value is -0.274.
For RRIRSRPPRLPRPRPRPVKSPRP the value was -0.127; for RRIRKRPPRLPRPRPRPNQRPRP, -0.192.
Turning to RRIRDRPPRLPRPRPRPDAWPRP, the “shrunken log2 fold change” value came out at 0.816.
For RRIRCRPPRLPRPRPRPNGPPRP, the “shrunken log2 fold change” value is -0.00954.
Turning to RRIRNRPPRLPRPRPRPMYYPRP, the “shrunken log2 fold change” value worked out at 0.0222.
For RRIRGRPPRLPRPRPRPCESPRP the value was 0.169; for RRIRIRPPRLPRPRPRPTPRPRP, 0.466.
For the sequence RRIRIRPPRLPRPRPRPQDMPRP, the “shrunken log2 fold change” value was -0.0502.
For RRIRRRPPRLPRPRPRPHHSPRP the value was -0.57; for RRIRERPPRLPRPRPRPAQSPRP, 0.0517.
Then RRIRRRPPRLPRPRPRPHVQPRP, with -0.143; and RRIRKRPPRLPRPRPRPQFTPRP, with -0.0285; and RRIRERPPRLPRPRPRPHNKPRP, with -0.787.
Then RRIRERPPRLPRPRPRPCYKPRP, with -0.901.
For the sequence RRIRARPPRLPRPRPRPRMIPRP, the “shrunken log2 fold change” value came to 0.219.
Take RRIRHRPPRLPRPRPRPYKEPRP: the “shrunken log2 fold change” value was -0.00664.
As for RRIRCRPPRLPRPRPRPRCVPRP, the “shrunken log2 fold change” value is -0.0609.
RRIRGRPPRLPRPRPRPQMYPRP: the “shrunken log2 fold change” value was 0.0854.
As to RRIRTRPPRLPRPRPRPTWFPRP, the “shrunken log2 fold change” value is -0.0683.
Then RRIRRRPPRLPRPRPRPFTNPRP, with 0.103.
Then RRIRLRPPRLPRPRPRPGMNPRP, with -0.72; and RRIRQRPPRLPRPRPRPNLRPRP, with 0.0769; and RRIRSRPPRLPRPRPRPRTTPRP, with 0.318.
For RRIRVRPPRLPRPRPRPVMKPRP the value was -0.127; for RRIRCRPPRLPRPRPRPEQPPRP, 0.581.
Take RRIRMRPPRLPRPRPRPWGLPRP: the “shrunken log2 fold change” value came out at 0.0219.
Then RRIRFRPPRLPRPRPRPFACPRP, with -0.189; and RRIRQRPPRLPRPRPRPWWIPRP, with -0.185.
For the sequence RRIRQRPPRLPRPRPRPIGYPRP, the “shrunken log2 fold change” value is -0.0242.
On to RRIRQRPPRLPRPRPRPEIKPRP, for which the “shrunken log2 fold change” value was -0.342.
For RRIRDRPPRLPRPRPRPRTMPRP, the “shrunken log2 fold change” value was -0.0423.
With RRIRARPPRLPRPRPRPAYVPRP, the “shrunken log2 fold change” value was -0.118.
For the sequence RRIRVRPPRLPRPRPRPKYNPRP, the “shrunken log2 fold change” value is -0.658.
Then RRIRARPPRLPRPRPRPTPTPRP, with 0.968; and RRIRNRPPRLPRPRPRPACAPRP, with 0.3.
Regarding RRIRKRPPRLPRPRPRPIVHPRP, the “shrunken log2 fold change” value was -0.42.
In the case of RRIRFRPPRLPRPRPRPDCRPRP, the “shrunken log2 fold change” value was -0.309.
Consider RRIRSRPPRLPRPRPRPWIFPRP, for which the “shrunken log2 fold change” value was -0.14.
For RRIRARPPRLPRPRPRPTIHPRP the value was -0.0543; for RRIRWRPPRLPRPRPRPSFNPRP, -0.365; for RRIRARPPRLPRPRPRPPWIPRP, 0.38.
Take RRIRIRPPRLPRPRPRPGMHPRP: the “shrunken log2 fold change” value was 0.00513.
In the case of RRIRLRPPRLPRPRPRPKNNPRP, the “shrunken log2 fold change” value was -0.297.
Then RRIRARPPRLPRPRPRPDNYPRP, with 0.0577.
Then RRIRTRPPRLPRPRPRPWMVPRP, with -0.208.
Then RRIRCRPPRLPRPRPRPNHLPRP, with -0.437; and RRIRMRPPRLPRPRPRPSFLPRP, with -0.121.
For the sequence RRIRSRPPRLPRPRPRPSQMPRP, the “shrunken log2 fold change” value was -0.161.
On to RRIRVRPPRLPRPRPRPCDFPRP, for which the “shrunken log2 fold change” value amounted to 0.0154.
Regarding RRIRSRPPRLPRPRPRPTMCPRP, the “shrunken log2 fold change” value was -0.0421.
As for RRIRIRPPRLPRPRPRPMPVPRP, the “shrunken log2 fold change” value is -0.244.
As to RRIRRRPPRLPRPRPRPNACPRP, the “shrunken log2 fold change” value was -0.00291.
For RRIRFRPPRLPRPRPRPVVGPRP the value was 0.362; for RRIRARPPRLPRPRPRPFTLPRP, -0.543; for RRIRYRPPRLPRPRPRPLRQPRP, 0.0273.
Then RRIRWRPPRLPRPRPRPNPEPRP, with -0.0123; and RRIRIRPPRLPRPRPRPGAHPRP, with -0.0753; and RRIRYRPPRLPRPRPRPSNWPRP, with -0.385.
For the sequence RRIRCRPPRLPRPRPRPRMHPRP, the “shrunken log2 fold change” value came out at 0.066.
With RRIRMRPPRLPRPRPRPNGHPRP, the “shrunken log2 fold change” value is -0.00897.
As to RRIRMRPPRLPRPRPRPLHCPRP, the “shrunken log2 fold change” value amounted to 0.254.
For RRIRCRPPRLPRPRPRPCQIPRP the value was 0.0258.
RRIRRRPPRLPRPRPRPAAYPRP: the “shrunken log2 fold change” value came to 0.585.
For the sequence RRIRHRPPRLPRPRPRPDNVPRP, the “shrunken log2 fold change” value was -0.02.
Then RRIRMRPPRLPRPRPRPLAWPRP, with 0.219; and RRIRCRPPRLPRPRPRPLEHPRP, with -0.167; and RRIRARPPRLPRPRPRPFGCPRP, with 0.128.
For RRIRKRPPRLPRPRPRPVYIPRP the value was -0.564.
For the sequence RRIRNRPPRLPRPRPRPWGGPRP, the “shrunken log2 fold change” value is -0.113.
For RRIRGRPPRLPRPRPRPMYQPRP the value was -0.0304; for RRIRCRPPRLPRPRPRPRCYPRP, -0.532.
With RRIRKRPPRLPRPRPRPIECPRP, the “shrunken log2 fold change” value was -0.0298.
Then RRIRDRPPRLPRPRPRPHVWPRP, with 0.0894; and RRIRIRPPRLPRPRPRPTHEPRP, with -0.0459; and RRIRSRPPRLPRPRPRPMVFPRP, with 0.104.
Turning to RRIRLRPPRLPRPRPRPRPNPRP, the “shrunken log2 fold change” value stood at 0.348.
RRIRNRPPRLPRPRPRPASTPRP: the “shrunken log2 fold change” value was -0.269.
Take RRIRMRPPRLPRPRPRPRRPPRP: the “shrunken log2 fold change” value is 1.16.
Regarding RRIRKRPPRLPRPRPRPDHSPRP, the “shrunken log2 fold change” value was -0.148.
In the case of RRIRPRPPRLPRPRPRPATTPRP, the “shrunken log2 fold change” value was 0.0694.
In the case of RRIRDRPPRLPRPRPRPTQEPRP, the “shrunken log2 fold change” value stood at 0.604.
Regarding RRIRRRPPRLPRPRPRPVELPRP, the “shrunken log2 fold change” value amounted to 0.0415.
RRIRERPPRLPRPRPRPTLSPRP: the “shrunken log2 fold change” value turned out to be 0.0115.
With RRIRWRPPRLPRPRPRPLCHPRP, the “shrunken log2 fold change” value was -0.0785.
Regarding RRIRMRPPRLPRPRPRPVQNPRP, the “shrunken log2 fold change” value is 0.0136.
RRIRYRPPRLPRPRPRPIADPRP: the “shrunken log2 fold change” value was 0.0616.
